Here are results for four substances from patent publication US20190085054A1.

Holding throughout (assay): cell-based or functional assay
Assay [1] has as its target active MMP13 (UniProt P45452).
For assay [2], the target named is human MMP2 (pro-MMP2 activated with APMA) (human) (UniProt P08253).
In assay [3] the target is catalytic domain of human MMP9 (human) (UniProt P14780).
Sequence of catalytic domain of human MMP9 (human) (P14780 107-444 limits assumed): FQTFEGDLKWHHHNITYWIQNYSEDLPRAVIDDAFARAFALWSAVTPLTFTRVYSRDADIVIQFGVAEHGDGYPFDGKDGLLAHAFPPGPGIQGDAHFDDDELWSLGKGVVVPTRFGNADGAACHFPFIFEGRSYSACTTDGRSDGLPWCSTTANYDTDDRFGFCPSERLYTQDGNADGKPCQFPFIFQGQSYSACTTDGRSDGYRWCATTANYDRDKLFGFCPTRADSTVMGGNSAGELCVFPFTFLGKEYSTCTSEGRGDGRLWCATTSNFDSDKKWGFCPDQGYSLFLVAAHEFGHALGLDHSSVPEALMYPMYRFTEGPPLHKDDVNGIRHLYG

Sequence of human MMP2 (pro-MMP2 activated with APMA) (human) (P08253 30-660): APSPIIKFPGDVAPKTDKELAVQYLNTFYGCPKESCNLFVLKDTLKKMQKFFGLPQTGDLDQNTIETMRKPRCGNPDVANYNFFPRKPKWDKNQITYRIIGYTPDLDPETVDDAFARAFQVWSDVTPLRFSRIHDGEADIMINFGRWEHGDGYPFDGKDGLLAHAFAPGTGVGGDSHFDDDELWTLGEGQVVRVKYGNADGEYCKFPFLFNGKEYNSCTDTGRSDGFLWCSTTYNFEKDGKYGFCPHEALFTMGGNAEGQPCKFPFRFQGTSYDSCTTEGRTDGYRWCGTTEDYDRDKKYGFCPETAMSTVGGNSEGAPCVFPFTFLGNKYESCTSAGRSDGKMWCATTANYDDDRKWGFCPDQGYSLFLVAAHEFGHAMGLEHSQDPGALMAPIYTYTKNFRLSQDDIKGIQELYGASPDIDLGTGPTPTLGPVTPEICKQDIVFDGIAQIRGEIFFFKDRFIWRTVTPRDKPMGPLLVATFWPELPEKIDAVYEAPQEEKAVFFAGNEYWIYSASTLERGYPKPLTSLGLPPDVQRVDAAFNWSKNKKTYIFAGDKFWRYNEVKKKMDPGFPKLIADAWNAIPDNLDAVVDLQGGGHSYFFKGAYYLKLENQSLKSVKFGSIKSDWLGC

The substance TIMP-3 mutein F57N registered an MMP13 IC50 in assay [1] of 0.5 nM. This substance came in with an MMP2 IC50 in assay [2] of 500 pM. Besides, the MMP9 IC50 in assay [3] was determined as 4.6 nM.

TIMP-3 mutein K45S, F57N displayed an MMP2 IC50 in assay [2] of 300 pM. Moreover, the MMP9 IC50 in assay [3] was found to be 4 nM.

Take TIMP-3 mutein P56N, G58T: the MMP13 IC50 in assay [1] stood at 3.1 nM. The substance also yielded an MMP2 IC50 in assay [2] of 1000 pM. For the same substance, the MMP9 IC50 in assay [3] came to 2.3 nM.

Turning to TIMP-3 mutein T63N, K65T, in assay [1], the MMP13 IC50 was determined as 2.2 nM. In assay [2], this substance showed an MMP2 IC50 of 800 pM. For the same substance, the MMP9 IC50 in assay [3] was determined as 0.5 nM.
